Reference: publication PMC7175128, “Rational Engineering of the Substrate Specificity of a Thermostable D-Hydantoinase (Dihydropyrimidinase)” (High-Throughput, 2020)

Experiments:
O=C1CCNC(=O)N1 = test system: T1, O=C1CCNC(=O)N1; experiment: purified protein; type: biochemical, Geobacillus stearothermophilus; conditions: 0.1 M MOPS pH 8.0, 0.5 mM MnSO4, temperature of kinetics not stated (activity assays at 60 °C)
T1 construct: recombinant from pET-Hyd in E. coli BL21(DE3); 52 kDa; heat-treated, ultrafiltered, desalted

[1] = test system: T2, O=C1NC(=O)C(Cc2c[nH]c3ccccc23)N1; experiment: purified protein; type: biochemical, Geobacillus stearothermophilus; conditions: 0.1 M MOPS pH 8.0, 0.5 mM MnSO4, temperature of kinetics not stated (activity assays at 60 °C)
T2 construct: recombinant from pET-Hyd in E. coli BL21(DE3); 52 kDa; heat-treated, ultrafiltered, desalted

Substance | Km (O=C1CCNC(=O)N1) [µM] | kcat (O=C1CCNC(=O)N1) [s⁻¹] | kcat/Km (O=C1CCNC(=O)N1) [M⁻¹ s⁻¹] | Km [1] [µM] | kcat [1] [s⁻¹] | kcat/Km [1] [M⁻¹ s⁻¹]
D-hydantoinase (dihydropyrimidinase) of G. stearothermophilus ATCC 31783 (Geobacillus stearothermophilus) | 970 ± 220 | 11.2 ± 0.7 | 11300 ± 2200 | – | – | –
D-hydantoinase (dihydropyrimidinase) of G. stearothermophilus ATCC 31783 (Geobacillus stearothermophilus; W287A) | 430 ± 130 | 2.76 ± 0.17 | 6530 ± 1830 | 1660 ± 850 | 6.83 ± 0.97 | 4130 ± 1630
D-hydantoinase (dihydropyrimidinase) of G. stearothermophilus ATCC 31783 (Geobacillus stearothermophilus; F159A/W287A) | 5610 ± 2320 | 6.16 ± 1 | 1100 ± 300 | 4300 ± 400 | 12.5 ± 0.50 | 2900 ± 170
D-hydantoinase (dihydropyrimidinase) of G. stearothermophilus ATCC 31783 (Geobacillus stearothermophilus; I190A) | 1120 ± 610 | 7.99 ± 0.9 | 7090 ± 3200 | – | – | –
D-hydantoinase (dihydropyrimidinase) of G. stearothermophilus ATCC 31783 (Geobacillus stearothermophilus; F159A) | 2890 ± 1270 | 21.8 ± 2.6 | 7530 ± 2500 | 600 ± 580 | 4.16 ± 0.60 | 6890 ± 5830
